Measurements: publication PMC9536601

Assays:
[1] = molecular target: chimeric hexon of Ad5:H1.6 (Ad5 vector, hexon residues 112-593 from Ad1 hexon, HVR7 IGVTDRY), on the virion (human adenovirus type 5 | human adenovirus type 1) (UniProt P04133); assay: SPR; Biacore T200; about 300 to 5,000 RU of Ad virions immobilised on a CM5 chip, coagulation factors flowed over at four concentrations, 50 uL/min; 10 mM HEPES, 150 mM NaCl, 1 mM CaCl2, 0.5 mM MgCl2, 0.1% BSA, 0.05% polysorbate 20, pH 7.4; global fit to a 1:1 kinetic interaction model, double referencing
[2] = molecular target: chimeric hexon of the Ad5 vector Ad5:H6.2 (Ad6 hexon section with HVR7 mutations, on virions) (human adenovirus 5 | human adenovirus 6) (UniProt P04133); assay: SPR; Biacore T200; about 300 to 5,000 RU of Ad virions immobilised on a CM5 chip, coagulation factors flowed over at four concentrations, 50 uL/min; running buffer 10 mM HEPES, 150 mM NaCl, 1 mM CaCl2, 0.5 mM MgCl2, 0.1% BSA, 0.05% polysorbate 20, pH 7.4; regeneration with 3 mM EDTA; global fit to a 1:1 kinetic interaction model, double referencing

Row | Substance | Kd [1] [µM] | Kd [2] [µM] | koff [2] [s⁻¹] | kon [2] [M⁻¹ s⁻¹]
1 | mouse coagulation factor X (from UniProt O88947 41-481) (natural protein) | 4.2 | 0.681 | 0.121 | 178000
2 | mouse prothrombin (coagulation factor II) (from UniProt P19221 44-618) (natural protein) | – | 0.56 | 0.012 | 21300
